Four molecules from patent US20090156490A1 can be followed below.

The target in data set [1] is soluble HLA-DQ2 heterodimer (purified, thrombin-treated DQ2-ligand fusion protein) (human). In words: peptide exchange kinetics (HPSEC, fluorescein-labelled peptide, soluble DQ2).
Data set [2] has the same target. In words: peptide exchange kinetics (HPSEC, fluorescein-labelled peptide, soluble DQ2), pH 7.3. A general note: SEC sorts molecules by how far they enter the pores of the column.
Data set [3] shares this target. In words: peptide exchange assay (HPSEC, fluorescein-labelled peptide 0.18 µM, soluble DQ2 4.7 µM, 37 C, 45 h), pH 5.5.
For data set [4], the target named is T1, 33-mer gliadin peptide (non-deamidated, α2-gliadin residues 57-89).
T1 chain: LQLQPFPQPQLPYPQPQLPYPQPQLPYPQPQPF

Where no end group is shown, it is not given here. bis‑dPEG6 = hexa-ethylene glycol bifunctional linker (bis-dPEG6 NHS ester)

B1: dimeric peptide 22 (two copies of L11K peptide 17 crosslinked through the Lys side chains by a hexa-ethylene glycol bifunctional linker) (peptide)
peptide: {5‑(and 6-)carboxyfluorescein}-LQLQPFPQPEK(bis‑dPEG6)PYPQPELPY
modifications: also: dimer: two copies crosslinked through Lys11 side chains via hexa-ethylene glycol linker
B1 registered a time to half maximal DQ2 occupancy in data set [1] of 2.5 h. The maximum occupancy in data set [2] came out at 40%.
Take {5(6)‑carboxyfluorescein}-PQPELPYPQ (not fully specified) [peptide 3 (minimal αII epitope)]: the binding maximum (DQ2 bound peptide as a percentage of total peptide) in data set [3] is 7%.

B2: human tissue transglutaminase (tTGase) (protein)
chain: AEELVLERCDLELETNGRDHHTADLCREKLVVRRGQPFWLTLHFEGRNYEASVDSLTFSVVTGPAPSQEAGTKARFPLRDAVEEGDWTATVVDQQDCTLSLQLTTPANAPIGLYRLSLEASTGYQGSSFVLGHFILLFNAWCPADAVYLDSEEERQEYVLTQQGFIYQGSAKFIKNIPWNFGQFEDGILDICLILLDVNPKFLKNAGRDCSRRSSPVYVGRVVSGMVNCNDDQGVLLGRWDNNYGDGVSPMSWIGSVDILRRWKNHGCQRVKYGQCWVFAAVACTVLRCLGIPTRVVTNYNSAHDQNSNLLIEYFRNEFGEIQGDKSEMIWNFHCWVESWMTRPDLQPGYEGWQALDPTPQEKSEGTYCCGPVPVRAIKEGDLSTKYDAPFVFAEVNADVVDWIQQDDGSVHKSINRSLIVGLKISTKSVGRDEREDITHTYKYPEGSSEEREAFTRANHLNKLAEKEETGMAMRIRVGQSMNMGSDFDVFAHITNNTAEEYVCRLLLCARTVSYNGILGPECGTKYLLNLNLEPFSEKSVPLCILYEKYRDCLTESNLIKVRALLVEPVINSYLLAERDLYLENPEIKIRILGEPKQKRKLVAEVSLQNPLPVALEGCTFTVEGAGLTEEQKTVEIPDPVEAGEEVKVRMDLLPLHMGLHKLVVNFESDKLKAVKGFRNVIIGPA
With B2, in data set [4], the kcat/KM of deamidation entry is given as “kcat/KM=440 min-1 mM-1”.
For {5(6)‑carboxyfluorescein}-LQLQPFPQPELPYPQPELPYPQPELPYPQPQPF (not fully specified) [33-mer peptide 1 (deamidated 33-mer from α2-gliadin)], the time to half maximal DQ2 occupancy in data set [1] is 8 h. Besides, the maximum occupancy in data set [2] was determined as 28%.
